Laboratory results reported in US12103969B2, “Anti-Siglec antibody, pharmaceutical composition comprising the same, and uses thereof” (Academia Sinica, priority 2018, dated 2024).

Key:
hHBV [1] = test: Bio-layer interferometry: immobilized Fc-lectin and hHBV; assay type: binding, hepatitis B virus; conditions: hHBV, BLI, same condition as Siglec-3
Text: HBV was purified from blood samples of chronic hepatitis B (CHB) patients and HBV-transgenic mice, respectively. The protocol for HBV was purified by conventional method. HBV viral load was determinate by RT-PCR according to a standard HBV plasmid. HBsAg level was quantified by the HBsAg ELISA kit.
Sialidase S and sialidase C were used to remove sialoglycan from HBV or sialoglycans, respectively. Sialidase S releases only α(2-3)-linked Neu5Ac, while Sialidase C release both α(2-3) and α(2-6)-linked Neu5Ac. The sialidase-treated substrates were used for HBV-Siglec-3 binding assay and competition assay.
The interaction between human Siglec.Fc fusion protein and HBV was determined by the Bio-layer interferometry. […] The valence between HBV and human Siglec-3 was determined, which correlates the strength of multivalent association with that of monovalent association as shown in the following: • KA, surf=F (S×10^−2)^n−1×(KA, mono)^n, where KA, surf is thereciprocal of KD (HBV and Siglec-3), KA, mono is the reciprocal of KD (Biantennary a2-6 linked sialylglycopeptide and Siglec-3); n is the number of valency number; F is the statistic factor in the system and S is equal to 40(Å), which is estimated according to crystal structure of Siglec-3 published on RCSB protein data bank (Number: 5J0B). […]

hHBV [2] = test: Immunoprecipitation of hHBV by Siglec ECD.Fc fusion proteins; assay type: binding, hepatitis B virus; conditions: Western blot with anti-HBs
Protocol: HBV ([…]) was incubated with recombinant Siglec-3/-7/-9 ECD.Fc fusion proteins, respectively, for 16 hours at 4° C., followed by incubation with Sepharose-conjugated Protein A beads for immunoprecipitation. The samples were fractionated on 12% SDS-PAGE before blotting to PVDF membrane and incubated in blocking buffer (0.05% Tween 20 in TBS containing 5% BSA) at 4° C. overnight. Blots were incubated with […] polyclonal goat-anti-HBs Ab for 1 hour at room temperature, followed by incubation with Streptavidin-HRP (1:10000 dilution) for another 1 hour at room temperature, and were visualized by ECL.

B1: Siglec-7: recombinant human Siglec-7 extracellular domain (ECD).Fc fusion protein (protein)
chain: QKSNRKDYSLTMQSSVTVQEGMCVHVRCSFSYPVDSQTDSDPVHGYWFRAGNDISWKAPVATNNPAWAVQEETRDRFHLLGDPQTKNCTLSIRDARMSDAGRYFFRMEKGNIKWNYKYDQLSVNVTALTHRPNILIPGTLESGCFQNLTCSVPWACEQGTPPMISWMGTSVSPLHPSTTRSSVLTLIPQPQHHGTSLTCQVTLPGAGVTTNRTIQLNVSYPPQNLTVTVFQGEGTASTALGNSSSLSVLEGQSLRLVCAVDSNPPARLSWTWRSLTLYPSQPSNPLVLELQVHLGDEGEFTCRAQNSLGSQHVSLNLSLQQEYTGKMRPVSGVLLGAVGGAGATALVFLSFCVIFIVVRSCRKKSARPAADVGDIGMKDANTIRGSASQGNLTESWADDNPRHHGLAAHSSGEEREIQYAPLSFHKGEPQDLSGQEATNNEYSEIKIPK
Which “binding to hHBV” value (hHBV [1]) does the source give for B1 here?
Its value is “did not bind”.

What about the “pull down of hHBV HBsAg (immunoprecipitation)” value (hHBV [2]) of the same molecule?
The value was “cannot pull down”.
